Ends that are not written are not given here. * marks the point of attachment. Biotin = O=C1N[C@H]2[C@H](CS[C@H]2CCCCC(=O)*)N1
Legend:
[1] = molecular target: T1, GST-DVL1 PDZ domain fusion protein (human, UniProt O14640 247-339); assay: A/G plate assays, Table 2 matrix
T1 construct: also called human dishevelled segment polarity protein homolog; not shown: glutathione S-transferase encoded by vector pGEX-3X (Pharmacia)
T1 sequence: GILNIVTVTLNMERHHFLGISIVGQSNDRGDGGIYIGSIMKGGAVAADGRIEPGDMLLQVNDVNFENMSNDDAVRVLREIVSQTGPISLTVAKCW

[2] = molecular target: T2, KIAA0807 (PDZ domain)-GST fusion protein (human, UniProt Q6P0Q8 1104-1192); assay: G assay on KIAA0807:GST fusion protein, 1 uM labeled peptide
T2 construct: also called K807; KIAA807; not shown: glutathione S-transferase encoded by vector pGEX-3X (Pharmacia)
T2 sequence: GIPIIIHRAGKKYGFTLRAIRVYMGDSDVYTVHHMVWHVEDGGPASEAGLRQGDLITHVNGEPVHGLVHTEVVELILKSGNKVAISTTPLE

[3] = molecular target: T3, GST-TAX-IP43 PDZ domain fusion protein (human, UniProt Q13884 109-180); assay: A/G plate assays, Table 2 matrix
T3 construct: also called TAX43; not shown: glutathione S-transferase encoded by vector pGEX-3X (Pharmacia)
T3 sequence: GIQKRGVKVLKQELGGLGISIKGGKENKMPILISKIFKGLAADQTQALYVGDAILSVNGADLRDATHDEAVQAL

[4] = molecular target: T4, GST-cytohesin binding protein PDZ domain fusion protein (Homo sapiens (Human), UniProt O60759 74-165); assay: A/G plate assays, Table 2 matrix
T4 construct: also called CBP; not shown: glutathione S-transferase encoded by vector pGEX-3X (Pharmacia)
T4 sequence: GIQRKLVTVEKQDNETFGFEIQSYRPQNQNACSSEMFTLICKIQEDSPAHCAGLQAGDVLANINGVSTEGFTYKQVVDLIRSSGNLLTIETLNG

[5] = molecular target: T5, GST-DLG5 (p-dlg) PDZ domain fusion protein (Human, UniProt Q8TDM6 1343-1583); assay: A/G plate assays, Table 2 matrix
T5 construct: also called Human discs large protein p-dlg; not shown: glutathione S-transferase encoded by vector pGEX-3X (Pharmacia)
T5 sequence: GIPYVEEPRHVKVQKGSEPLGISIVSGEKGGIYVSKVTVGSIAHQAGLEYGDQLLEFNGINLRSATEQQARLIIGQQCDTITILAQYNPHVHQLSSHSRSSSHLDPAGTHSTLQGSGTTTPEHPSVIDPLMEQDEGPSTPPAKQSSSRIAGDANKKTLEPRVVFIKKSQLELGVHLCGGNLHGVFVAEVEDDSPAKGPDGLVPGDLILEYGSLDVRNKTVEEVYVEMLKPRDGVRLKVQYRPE

[6] = molecular target: T6, GST-mouse syntenin fusion protein (Mus musculus, UniProt O08992 108-286); assay: A/G plate assays, Table 2 matrix
T6 construct: also called Mus musculus Syntenin; not shown: glutathione S-transferase encoded by vector pGEX-3X (Pharmacia)
T6 chain: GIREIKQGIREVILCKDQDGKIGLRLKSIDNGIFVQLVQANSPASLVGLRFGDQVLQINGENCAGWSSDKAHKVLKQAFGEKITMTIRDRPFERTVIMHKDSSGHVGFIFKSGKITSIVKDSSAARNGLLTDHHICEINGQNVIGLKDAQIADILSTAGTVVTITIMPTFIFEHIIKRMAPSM

Biotin-TTNNNPNSAVNIKKIFTDV [KV1.3 C-terminal peptide AA33L, biotinylated]
binding result [1]: binds

Biotin-PSWRRSSLSESENATSLTTF (also called CXCR5) [BLR-1 C-terminal peptide AA45L, biotinylated]
binding result [2]: binds

B1: Spectrin (beta) C-terminal peptide AA32L, biotinylated (peptide)
peptide: Biotin-SFPPCGHRENVPGQSLVSFV
notes: Marked (S), sticky; also called Spectrin beta (S); Spectrin β
binding result [3]: binds
binding result [4]: binds
binding result [5]: binds

Biotin-QFMTADETRNLQNVDMKIGV (also called CD44 (long form)) [CD44 C-terminal peptide AA9L, biotinylated]
binding result [6]: binds
